{
  "source": "patent US20170248602A1",
  "key": {"[1]": {"target": "SNAP-25 peptide comprising amino acids 134-197 of SEQ ID NO:5 (human)", "assay": "SPR (BIAcore 3000), peptide on CM5 chip, 1:1 fit"}, "[2]": {"target": "SNAP-25 peptide comprising amino acids 134-206 of SEQ ID NO:5 (human)", "assay": "SPR (BIAcore 3000), peptide on CM5 chip, 1:1 fit"}},
  "data": [
    {"substance": "MC-6050 mouse α-SNAP-25 monoclonal antibody (Research & Diagnostic Antibodies)", "values": [
      {"measurement": "Kd", "setting": "[1]", "result": 0.497, "unit": "nM"},
      {"measurement": "koff", "setting": "[1]", "result": 0.000882, "unit": "s⁻¹"},
      {"measurement": "kon", "setting": "[1]", "result": "1.78e+06", "unit": "M⁻¹ s⁻¹"},
      {"measurement": "Kd", "setting": "[2]", "result": 19800, "unit": "nM"},
      {"measurement": "koff", "setting": "[2]", "result": 0.00607, "unit": "s⁻¹"},
      {"measurement": "kon", "setting": "[2]", "result": 306, "unit": "M⁻¹ s⁻¹"}
    ]},
    {"substance": "MC-6053 mouse α-SNAP-25 monoclonal antibody (Research & Diagnostic Antibodies)", "values": [
      {"measurement": "Kd", "setting": "[1]", "result": 0.508, "unit": "nM"},
      {"measurement": "koff", "setting": "[1]", "result": 0.00118, "unit": "s⁻¹"},
      {"measurement": "kon", "setting": "[1]", "result": "2.32e+06", "unit": "M⁻¹ s⁻¹"},
      {"measurement": "Kd", "setting": "[2]", "result": 240, "unit": "nM"},
      {"measurement": "koff", "setting": "[2]", "result": "2.56e-05", "unit": "s⁻¹"}
    ]}
  ]
}
